We go through one molecule from paper PMC10144703, “Molecular Mechanism of Sirtuin 1 Inhibition by Human Immunodeficiency Virus 1 Tat Protein” (Life, 2023).

Assay [1] addresses T1, human Sirt5 (Homo sapiens, UniProt Q9NXA8).
T1 construct: Sirt5-(34-302) in pET-151/D-TOPO; made in house; host or cells: E. coli CodonPlus(DE3)
T1 sequence (Q9NXA8 34-302): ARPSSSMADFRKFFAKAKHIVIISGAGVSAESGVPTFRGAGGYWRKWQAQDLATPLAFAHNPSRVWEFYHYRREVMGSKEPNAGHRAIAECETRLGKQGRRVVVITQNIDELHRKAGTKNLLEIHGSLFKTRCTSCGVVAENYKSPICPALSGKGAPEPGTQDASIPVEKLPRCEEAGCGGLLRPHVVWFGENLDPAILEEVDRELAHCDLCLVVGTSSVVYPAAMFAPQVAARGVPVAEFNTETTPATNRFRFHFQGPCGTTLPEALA
The assay is described as follows: Continuous coupled enzymatic assay, Sirt5. The assay is classed as biochemical. Particulars: 65 μM Tat-Cys^−, succinylated peptide at substrate Km, n = 3. The text has this:
(§1) A human mini-Sirt1 construct (aa 183-505-(GGGS)2-641-665), as described in [27], was generated in a modified pET-19b with a TEV cleavage site. This construct and human full-length Sirt1 (fl-Sirt1) in pET-15b, Sirt1-(183-664) and Sirt1-(214-664) in pET-15b, mini-Sirt1-∆SBD (aa 214-505-(GGGS)2-641-665) and mini-Sirt1-∆ESA (aa 183–505) in a modified pET-19b with TEV cleavage site, Sirt2-(43-356) in a modified pET-19b with a His6-Sumo tag, Sirt3-(93-399) in a modified pET-32a with Trx-His6 tag and TEV cleavage site, hSirt3-(118-399) in pVFT3S (Sungkyunkwan University, Seoul, Republic of Korea) with His6-Trx tag and TEV cleavage site, Sirt5-(34-302) in pET-151/D-TOPO, and Sirt6-(1-355) in pQE80L.1 were purified as described. […]
(§2) Continuous coupled enzymatic sirtuin activity assays were conducted as described. […] Reactions were monitored for 1 h at room temperature by absorption spectroscopy at 340 nm in a UV/vis plate reader (BioTek). The slope for the linear range (typically 5–25 min) was evaluated after background correction with measurements without NAD^+. Additional control reactions were run by either omitting enzyme or omitting peptide substrate to ensure that the signal measured reflects the NAD+-dependent deacetylation activity of the sirtuin.

The target of assay [2] is T2, human Sirt6 (Homo sapiens, UniProt Q8N6T7).
T2 construct: Sirt6-(1-355) in pQE80L.1; made in house; host or cells: E. coli CodonPlus(DE3)
T2 sequence (Q8N6T7 whole entry): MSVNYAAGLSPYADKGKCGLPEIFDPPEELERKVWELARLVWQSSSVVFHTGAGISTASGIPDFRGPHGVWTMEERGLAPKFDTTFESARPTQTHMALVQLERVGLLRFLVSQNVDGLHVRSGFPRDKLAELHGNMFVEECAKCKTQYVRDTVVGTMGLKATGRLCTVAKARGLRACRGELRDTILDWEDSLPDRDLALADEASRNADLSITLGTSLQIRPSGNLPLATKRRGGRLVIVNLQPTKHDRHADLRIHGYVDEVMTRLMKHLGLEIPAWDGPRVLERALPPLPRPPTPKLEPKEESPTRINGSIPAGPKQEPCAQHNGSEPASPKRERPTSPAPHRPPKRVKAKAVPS
The assay is described as follows: Continuous coupled enzymatic assay, Sirt6. The assay is classed as biochemical. Particulars: 65 μM Tat-Cys^−, myristoylated peptide at substrate Km, n = 3.
Text: as §1, §2

Assay [3] addresses T3, mini-Sirt1 (Homo sapiens, UniProt Q96EB6).
T3 construct: aa 183-505-(GGGS)2-641-665; made in house; host or cells: E. coli CodonPlus(DE3)
T3 sequence (Q96EB6 with tags, fused parts or gaps limits assumed): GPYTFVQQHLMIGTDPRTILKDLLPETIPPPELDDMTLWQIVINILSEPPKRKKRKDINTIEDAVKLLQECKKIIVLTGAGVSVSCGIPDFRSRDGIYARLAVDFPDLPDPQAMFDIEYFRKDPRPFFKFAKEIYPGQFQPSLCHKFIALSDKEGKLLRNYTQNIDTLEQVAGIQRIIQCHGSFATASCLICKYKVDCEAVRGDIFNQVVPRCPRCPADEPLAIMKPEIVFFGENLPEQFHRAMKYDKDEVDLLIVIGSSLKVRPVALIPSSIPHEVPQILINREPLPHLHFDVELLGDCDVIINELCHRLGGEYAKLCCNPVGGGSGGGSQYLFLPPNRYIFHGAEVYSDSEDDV
The assay is described as follows: 2D-(1H, 15N)-HSQC NMR titration of Tat-Cys^− with mini-Sirt1. The assay is classed as binding. Conditions: 58 µM Tat-Cys^−, 2-fold molar excess mini-Sirt1, pH 6.4, 298 K. As for the experimental part:
NMR titration experiments were performed by stepwise addition of unlabeled mini-Sirt1 (stock concentration 260 µM) to 100 µM ^15N-labeled Tat-Cys^− in 150 mM sodium chloride, and 10 mM potassium phosphate (pH 6.4). Spectra for 2D-(^1H, ^15N)-HSQC NMR were recorded at 298 K on a Bruker 700 MHz spectrometer equipped with a cryogenically-cooled probe.

For assay [4], the target named is T3, mini-Sirt1. The assay is described as follows: DSSO crosslinking and MS analysis of mini-Sirt1/Tat-Cys^−. The assay is classed as binding. How it is done:
Prior to crosslinking, mini-Sirt1, and Tat-Cys^− were dialyzed separately at 4 °C in Xpress Micro Dialyzer tubes (Serva, MD300, cutoff 6–8 kDa) against 25 mM HEPES, pH 7.5, 150 mM NaCl, 5% (v/v) glycerol. Then, 50 µM of each protein was crosslinked at 20 °C with 2.82 mM disuccinimidyl sulfoxide (DSSO) in 5% (v/v) DMSO. Before the addition of the crosslinker, 10 µL was removed from the reaction (t = 0 min) and stopped by adding 1 µL 1 M Tris/HCl, pH 8.0. Likewise, at several timepoints after the addition of DSSO, 10 µL of the reaction was sampled. Reaction samples were supplemented with SDS sample buffer and separated on a 15% SDS-PAGE. Controls contained only one of the two proteins and were treated similarly to exclude self-crosslinking.
Crosslinked protein bands were cut out from SDS-PAGE gels and digested with 200 ng trypsin in 25 mM NH4HCO3, pH 8.0, at 37 °C overnight. The digested proteins were dried in a vacuum centrifuge, resuspended in 0.1% (v/v) FA, and injected onto a desalting column, followed by automated peptide separation with a C18 column (buffer A: 0.1% (v/v) FA, 5% (v/v) acetonitrile; buffer B: 0.1% (v/v) FA, 95% (v/v) acetonitrile). MS/MS spectra were recorded with an LTQ mass spectrometer (Thermo Fischer Scientific, Waltham, MA, USA) and CID-cleaved inter-protein crosslinks were analyzed with Byonic^TM (Protein Metrics Inc., San Carlos, CA, USA).

B1: Tat-Cys^−: Recombinant 86-residue HIV1 Zaire 2 Tat with C22S, C25A, C27A, C30S, C31A, C34S, and C37A (protein)
chain: MDPVDPNIEPWNHPGSQPKTASNRAHAKKSAYHSQVAFITKGLGISYGRKKRRQRRRPSQGGQTHQDPIPKQPSSQPRGDPTGPKE
For the molecule B1, the “inhibitory effect on Sirt5, continuous assay” value in assay [1] was “no statistically significant effect was observed”. In addition, the “inhibitory effect on Sirt6, continuous assay” value in assay [2] was “no statistically significant effect was observed”. In assay [3], the “HSQC signal changes on mini-Sirt1 addition” value was “a large number of HSQC signals to disappear” and the “HSQC signals unchanged on mini-Sirt1 addition” value is “mostly to Tat residues 63–87”. The “crosslinking, SDS-PAGE” value in assay [4] (50 µM each protein, 2.82 mM DSSO, 5% (v/v) DMSO, pH 7.5, 20 °C) is recorded as “a strong band for a linked complex”. In assay [4] (DSSO crosslink, trypsin digest, MS/MS), the “crosslink site by MS” value was “a crosslink between Tat-Lys71 and Sirt1-Lys238”.
